IntAct's records for PubMed 31515488

B1: Coiled-coil domain-containing protein 33 (Homo sapiens), Q8N5R6-5 (parent)
chain: MGEPGPPSPPAPKAAPGLIDSFSEMNNYRRAMQKMAEDILSLRRQASILEGENRILRSRLAQQEEEEGQGKASEAQNTVSMKQKLLLSELDMKKLRDRVQHLQNELIRKNDREKELLLLYQAQQPQAALLKQYQGKLQKMKALEETVRHQEKVIEKMERVLEDRLQDRSKPPPLNRQQGKPYTGFPMLSASGLPLGSMGENLPVELYSVLLAENAKLRTELDKNRHQQAPIILQQQALPVDPGELGAGGDLTERLQETHGPGHSECTETLPAQDLLSGTSDKFNLLAKLEHAQSRILSLESQLEDSARRWGREKQDLATRLQEQEKGFRHPSNSIIIEQPVSDPPGVAPRGSGGGAGSHRTPKVTGP
partner: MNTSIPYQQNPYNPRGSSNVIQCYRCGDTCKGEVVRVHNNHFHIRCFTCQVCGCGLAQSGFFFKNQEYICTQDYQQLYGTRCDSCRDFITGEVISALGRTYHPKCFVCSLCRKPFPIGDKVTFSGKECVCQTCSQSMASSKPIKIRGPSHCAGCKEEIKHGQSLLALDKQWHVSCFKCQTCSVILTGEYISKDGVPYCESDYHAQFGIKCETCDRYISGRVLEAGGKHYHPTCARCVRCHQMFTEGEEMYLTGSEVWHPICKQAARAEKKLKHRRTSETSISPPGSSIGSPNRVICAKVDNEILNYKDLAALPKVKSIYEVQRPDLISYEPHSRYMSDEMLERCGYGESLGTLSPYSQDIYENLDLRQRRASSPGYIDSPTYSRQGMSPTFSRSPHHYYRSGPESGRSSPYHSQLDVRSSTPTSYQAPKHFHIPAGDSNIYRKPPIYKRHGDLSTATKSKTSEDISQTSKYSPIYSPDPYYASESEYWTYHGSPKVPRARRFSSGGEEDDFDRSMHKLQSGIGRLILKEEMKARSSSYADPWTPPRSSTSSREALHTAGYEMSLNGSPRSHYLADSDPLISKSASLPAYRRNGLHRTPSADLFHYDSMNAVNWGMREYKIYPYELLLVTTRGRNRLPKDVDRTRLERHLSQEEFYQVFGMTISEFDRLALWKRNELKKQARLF
B2: KH domain-containing, RNA-binding, signal transduction-associated protein 2 (Homo sapiens), Q5VWX1 (parent)
chain: MEEEKYLPELMAEKDSLDPSFVHASRLLAEEIEKFQGSDGKKEDEEKKYLDVISNKNIKLSERVLIPVKQYPKFNFVGKLLGPRGNSLKRLQEETGAKMSILGKGSMRDKAKEEELRKSGEAKYAHLSDELHVLIEVFAPPGEAYSRMSHALEEIKKFLVPDYNDEIRQEQLRELSYLNGSEDSGRGRGIRGRGIRIAPTAPSRGRGGAIPPPPPPGRGVLTPRGSTVTRGALPVPPVARGVPTPRARGAPTVPGYRAPPPPAHEAYEEYGYDDGYGGEYDDQTYETYDNSYATQTQSVPEYYDYGHGVSEDAYDSYAPEEWATTRSSLKAPPQRSARGGYREHPYGRY
partner: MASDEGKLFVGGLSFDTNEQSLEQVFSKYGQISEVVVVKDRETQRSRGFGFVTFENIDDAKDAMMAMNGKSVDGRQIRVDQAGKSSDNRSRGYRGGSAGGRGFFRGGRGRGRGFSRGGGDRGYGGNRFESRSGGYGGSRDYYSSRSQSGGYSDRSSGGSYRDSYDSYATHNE
B3: Macrophage scavenger receptor types I and II (Homo sapiens), P21757 (parent)
chain: MEQWDHFHNQQEDTDSCSESVKFDARSMTALLPPNPKNSPSLQEKLKSFKAALIALYLLVFAVLIPLIGIVAAQLLKWETKNCSVSSTNANDITQSLTGKGNDSEEEMRFQEVFMEHMSNMEKRIQHILDMEANLMDTEHFQNFSMTTDQRFNDILLQLSTLFSSVQGHGNAIDEISKSLISLNTTLLDLQLNIENLNGKIQENTFKQQEEISKLEERVYNVSAEIMAMKEEQVHLEQEIKGEVKVLNNITNDLRLKDWEHSQTLRNITLIQGPPGPPGEKGDRGPTGESGPRGFPGPIGPPGLKGDRGAIGFPGSRGLPGYAGRPGNSGPKGQKGEKGSGNTLTPFTKVRLVGGSGPHEGRVEILHSGQWGTICDDRWEVRVGQVVCRSLGYPGVQAVHKAAHFGQGTGPIWLNEVFCFGRESSIEECKIRQWGTRACSHSEDAGVTCTL
B4: Kelch-like protein 3 (Homo sapiens), Q9UH77 (parent)
chain: MEGESVKLSSQTLIQAGDDEKNQRTITVNPAHMGKAFKVMNELRSKQLLCDVMIVAEDVEIEAHRVVLAACSPYFCAMFTGDMSESKAKKIEIKDVDGQTLSKLIDYIYTAEIEVTEENVQVLLPAASLLQLMDVRQNCCDFLQSQLHPTNCLGIRAFADVHTCTDLLQQANAYAEQHFPEVMLGEEFLSLSLDQVCSLISSDKLTVSSEEKVFEAVISWINYEKETRLEHMAKLMEHVRLPLLPRDYLVQTVEEEALIKNNNTCKDFLIEAMKYHLLPLDQRLLIKNPRTKPRTPVSLPKVMIVVGGQAPKAIRSVECYDFEEDRWDQIAELPSRRCRAGVVFMAGHVYAVGGFNGSLRVRTVDVYDGVKDQWTSIASMQERRSTLGAAVLNDLLYAVGGFDGSTGLASVEAYSYKTNEWFFVAPMNTRRSSVGVGVVEGKLYAVGGYDGASRQCLSTVEQYNPATNEWIYVADMSTRRSGAGVGVLSGQLYATGGHDGPLVRKSVEVYDPGTNTWKQVADMNMCRRNAGVCAVNGLLYVVGGDDGSCNLASVEYYNPVTDKWTLLPTNMSTGRSYAGVAVIHKSL
B5: Notch homolog 2 N-terminal-like protein A (Homo sapiens), Q7Z3S9 (parent)
chain: MCVTYHNGTGYCKCPEGFLGEYCQHRDPCEKNRCQNGGTCVAQAMLGKATCRCASGFTGEDCQYSTSHPCFVSRPCLNGGTCHMLSRDTYECTCQVGFTGKECQWTDACLSHPCANGSTCTTVANQFSCKCLTGFTGQKCETDVNECDIPGHCQHGGTCLNLPGSYQCQCLQGFTGQYCDSLYVPCAPSPCVNGGTCRQTGDFTFECNCLPETVRRGTELWERDREVWNGKEHDEN
partner: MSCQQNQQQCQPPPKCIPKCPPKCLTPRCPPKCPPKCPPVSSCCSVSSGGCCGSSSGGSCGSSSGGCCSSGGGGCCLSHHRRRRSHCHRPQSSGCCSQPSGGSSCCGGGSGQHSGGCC

Variants of: B1
Conditions: with ablm3_human ABLIM3, O94929

| Variant | effect of a mutation on the interaction |
| --- | --- |
| G196R | with no effect |
| M25V | with no effect |

Variants of: B2
Conditions: with cirbp_human CIRBP

| Variant | effect of a mutation on the interaction |
| --- | --- |
| P333L | with no effect |

Variants of: B3
Conditions: with sc22a_human SEC22A

| Variant | effect of a mutation on the interaction |
| --- | --- |
| V113A | with no effect |
| P275A | with no effect |
| P346L | with no effect |

Variants of: B3
Conditions: with lerl1_human LEPROTL1, O95214
lerl1_human LEPROTL1, O95214, sequence (O95214 whole entry): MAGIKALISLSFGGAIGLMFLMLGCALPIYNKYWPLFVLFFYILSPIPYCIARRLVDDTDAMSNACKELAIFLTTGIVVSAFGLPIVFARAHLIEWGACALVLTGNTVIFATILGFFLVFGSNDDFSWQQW

| Variant | effect of a mutation on the interaction |
| --- | --- |
| P286T | with no effect |

Variants of: B4
Conditions: with cul3_human CUL3, Q13618

| Variant | effect of a mutation on the interaction |
| --- | --- |
| R228G | disrupting interaction strength |
| C164F | disrupting interaction strength |

Variants of: B5
Conditions: with lce1b_human LCE1B

| Variant | effect of a mutation on the interaction |
| --- | --- |
| R74Q | with no effect |
| A115T | with no effect |
